Here are results for 4 molecules from US20190002562A1 (INTERVET, published 2019).

Assay [1] concerns the target T1, recombinant human CD64 protein (R&D systems) (human, UniProt P12314 16-288).
T1 construct: Bought protein; also called FcγRI; FcRγI
The assay can be described thus: ELISA: antibody captured on PD-1 HIS, recombinant human CD64 added. Here is the method: Binding to FcRγI is a measure of the ability of an antibody to mediate ADCC. In order to assess this property for the caninized antibodies an assay to measure binding of caninized antibodies to FcγRI was conducted as follows: Coat 96-well plates with 100 μl per well of 2.5 μg/mL PD-1 HIS. Incubate at 2-7° C. overnight. Equilibrate the plates to room temp for 15 minutes. Wash plates 3× with phosphate buffered saline containing 0.05% Tween® 20 (PBST) and then block the wells using 200 μL/well of 5% NFDM (Non Fat Dried Milk). Incubate for 60 minutes at 36-38° C. Wash 3× with PBST. Make 2-fold dilution of antibodies starting at 1 μg/mL in 5% NFDM. Add 100 μL/well of diluted antibodies. Incubate for 60 minutes at 36-38° C. Wash 6× with PBST. Add 100 μL/well of recombinant human CD64 protein (R&D systems) diluted to 1 μg/mL. Incubate for 60 minutes at 36-38° C. Wash 6× with PBST. Add 100 μL/well biotinylated-anti-CD64 antibody (R&D systems) diluted to 1:3000. Incubate for 60 minutes at 36-38° C. Wash 6× with PBST. Add 100 μL/well Streptavidin-HRP antibody (R&D systems) diluted to 1:7500. Incubate for 60 minutes at 36-38° C. Wash 6× with PBST. Add 100 μL/well TMB substrate. Incubate for 10 minutes at 15-30° C. Read plates using ELISA plate reader at 450-540 nm.

Assay [2] deals with T2, HIS-tagged canine PD-1 ECD protein (canine).
T2 construct: also called PD-1 HIS; canine PD-1 ECD-HIS tagged protein; not shown: HIS tag
T2 chain: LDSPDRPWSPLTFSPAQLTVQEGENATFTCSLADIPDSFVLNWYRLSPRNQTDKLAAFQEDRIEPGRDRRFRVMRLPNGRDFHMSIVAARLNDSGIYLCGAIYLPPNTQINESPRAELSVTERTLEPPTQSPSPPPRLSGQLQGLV
The assay can be described thus: ELISA on the extracellular domain of canine PD-1.

T1 sequence (P12314 16-288 limits assumed): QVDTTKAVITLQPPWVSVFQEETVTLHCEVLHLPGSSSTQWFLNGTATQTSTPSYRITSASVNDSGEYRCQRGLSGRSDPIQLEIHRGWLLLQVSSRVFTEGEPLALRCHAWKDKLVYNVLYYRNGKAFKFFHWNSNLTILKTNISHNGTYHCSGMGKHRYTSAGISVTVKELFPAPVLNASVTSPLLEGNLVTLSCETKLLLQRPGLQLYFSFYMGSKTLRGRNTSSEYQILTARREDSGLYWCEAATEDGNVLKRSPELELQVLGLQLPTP

B1: can2H9 ADCC mut-2 VH4/VL3 (antibody)
heavy: EVQLVQSGGDLVKPGGSVRLSCVASGFNIKNTYMHWVRQAPGKGLQWIGRIAPANVDTKYAPKFQGKATISADTAKNTAYMQLNSLRAEDTAVYYCVLIYYDYDGDIDVWGQGTLVTVSSASTTAPSVFPLAPSCGSTSGSTVALACLVSGYFPEPVTVSWNSGSLTSGVHTFPSVLQSSGLYSLSSMVTVPSSRWPSETFTCNVAHPASKTKVDKPVPKRENGRVPRPPDCPKCPAPEMLGGPSVFIFPPKPKDTLLIARTPEVTCVVVDLDPEDPEVQISWFVDGKQMQTAKTQPREEQFAGTYRVVSVLPIGHQDWLKGKQFTCKVNNKALPSPIERTISKARGQAHQPSVYVLPPSREELSKNTVSLTCLIKDFFPPDIDVEWQSNGQQEPESKYRTTPPQLDEDGSYFLYSKLSVDKSRWQRGDTFICAVMHEALHNHYTQESLSHSPGK
light: DIVMTQTPLSLSVSLGEPASISCHASQNINVWLSWYRQKPGQIPQLLIYKASHLHTGVPDRFSGSGSGTDFTLRISRVEADDAGVYYCQQGQSWPLTFGQGTKVEIKRNDAQPAVYLFQPSPDQLHTGSASVVCLLNSFYPKDINVKWKVDGVIQDTGIQESVTEQDSKDSTYSLSSTLTMSSTEYLSHELYSCEITHKSLPSTLIKSFQRSECQRVD
notes: also called can2H9 VH4 IgGB ADCC (mut-2)/VL3; YZZ1058/Mut-2
Regarding B1, the binding result in assay [1] is on record as “binds”.

B2: can2H9 ADCC (1062) VH4/VL3 (antibody)
heavy: EVQLVQSGGDLVKPGGSVRLSCVASGFNIKNTYMHWVRQAPGKGLQWIGRIAPANVDTKYAPKFQGKATISADTAKNTAYMQLNSLRAEDTAVYYCVLIYYDYDGDIDVWGQGTLVTVSSASTTAPSVFPLAPSCGSTSGSTVALACLVSGYFPEPVTVSWNSGSLTSGVHTFPSVLQSSGLYSLSSMVTVPSSRWPSETFTCNVAHPASKTKVDKPVPKRENGRVPRPPDCPKCPAPEMLGGPSVFIFPPKPKDTLLIARTPEVTCVVVALDPEDPEVQISWFVDGKQMQTAKTQPREEQFAGTYRVVSVLPIGHQDWLKGKQFTCKVNNKALPSPIERTISKARGQAHQPSVYVLPPSREELSKNTVSLTCLIKDFFPPDIDVEWQSNGQQEPESKYRTTPPQLDEDGSYFLYSKLSVDKSRWQRGDTFICAVMHEALHNHYTQESLSHSPGK
light: DIVMTQTPLSLSVSLGEPASISCHASQNINVWLSWYRQKPGQIPQLLIYKASHLHTGVPDRFSGSGSGTDFTLRISRVEADDAGVYYCQQGQSWPLTFGQGTKVEIKRNDAQPAVYLFQPSPDQLHTGSASVVCLLNSFYPKDINVKWKVDGVIQDTGIQESVTEQDSKDSTYSLSSTLTMSSTEYLSHELYSCEITHKSLPSTLIKSFQRSECQRVD
notes: also called YZZ1062
As usually defined, the EC50 (read off the curve) is the concentration at which the effect is half-maximal. Consider B2, for which, in assay [2], the “EC50 (read off the curve)” value is about 0.3 nM. The binding result in assay [1] was “no binding”.

B3: can 2H9 IgGB ADCC (1068) VH4/VL3 (antibody)
heavy: EVQLVQSGGDLVKPGGSVRLSCVASGFNIKNTYMHWVRQAPGKGLQWIGRIAPANVDTKYAPKFQGKATISADTAKNTAYMQLNSLRAEDTAVYYCVLIYYDYDGDIDVWGQGTLVTVSSASTTAPSVFPLAPSCGSTSGSTVALACLVSGYFPEPVTVSWNSGSLTSGVHTFPSVLQSSGLYSLSSMVTVPSSRWPSETFTCNVAHPASKTKVDKPVPKRENGRVPRPPDCPKCPAPEMLGGASVFIFPPKPKDTLLIARTPEVTCVVVALDPEDPEVQISWFVDGKQMQTAKTQPREEQFAGTYRVVSVLPIGHQDWLKGKQFTCKVNNKGLASPIERTISKARGQAHQPSVYVLPPSREELSKNTVSLTCLIKDFFPPDIDVEWQSNGQQEPESKYRTTPPQLDEDGSYFLYSKLSVDKSRWQRGDTFICAVMHEALHNHYTQESLSHSPGK
light: DIVMTQTPLSLSVSLGEPASISCHASQNINVWLSWYRQKPGQIPQLLIYKASHLHTGVPDRFSGSGSGTDFTLRISRVEADDAGVYYCQQGQSWPLTFGQGTKVEIKRNDAQPAVYLFQPSPDQLHTGSASVVCLLNSFYPKDINVKWKVDGVIQDTGIQESVTEQDSKDSTYSLSSTLTMSSTEYLSHELYSCEITHKSLPSTLIKSFQRSECQRVD
notes: also called can2H9 VH4 IgGB ADCC (1068)/VL3; YZZ1068
In the case of B3, the binding result in assay [1] is “no binding”.

B4: 3B6 VH3 IgGB / VL3 (antibody, V domains shown)
VH: EVQLVQSGGDLVKPGGSVRLSCVASGYTFTTYGMSWVRQAPGKGLQWMGWINIYSGIPTYADDFKGRFTFSLDTAKNTAYLQLNSLRAEDTAVYYCTRFDGPDYWGQGTLVTVSS
VL: DIVMTQTPLSLSVSPGEPASMSCKSSQSLLNSVNQKNYLAWYRQKPGQSPQVLVYFASARVSGVPDRFIGSGSGTDFTLRISRVEADDLGVYYCQQYFSTPLTFGQGTKLELKR
notes: copies: 2 + 2
For the molecule B4, the “EC50 (read off the curve)” value in assay [2] was about 0.1 nM.
